Experimental data reported in IntAct's records for PubMed 31515488.

B1: Protein FAM9B (Homo sapiens), Q8IZU0 (parent)
chain: MAAWGKKHAGKDPVRDECEERNRFTETREEDVTDEHGEREPFAETDEHTGANTKKPEDTAEDLTAKRKRMKMDKTCSKTKNKSKHALRKKQLKRQKRDYIHSLKLLNVLEEYITDEQKEEEEEEGEEEELIRIFQEQQKKWQQYRSVRRERLKEMKLLRDQFVKALEDFEDLCDRVFSDEDSELDN
partner: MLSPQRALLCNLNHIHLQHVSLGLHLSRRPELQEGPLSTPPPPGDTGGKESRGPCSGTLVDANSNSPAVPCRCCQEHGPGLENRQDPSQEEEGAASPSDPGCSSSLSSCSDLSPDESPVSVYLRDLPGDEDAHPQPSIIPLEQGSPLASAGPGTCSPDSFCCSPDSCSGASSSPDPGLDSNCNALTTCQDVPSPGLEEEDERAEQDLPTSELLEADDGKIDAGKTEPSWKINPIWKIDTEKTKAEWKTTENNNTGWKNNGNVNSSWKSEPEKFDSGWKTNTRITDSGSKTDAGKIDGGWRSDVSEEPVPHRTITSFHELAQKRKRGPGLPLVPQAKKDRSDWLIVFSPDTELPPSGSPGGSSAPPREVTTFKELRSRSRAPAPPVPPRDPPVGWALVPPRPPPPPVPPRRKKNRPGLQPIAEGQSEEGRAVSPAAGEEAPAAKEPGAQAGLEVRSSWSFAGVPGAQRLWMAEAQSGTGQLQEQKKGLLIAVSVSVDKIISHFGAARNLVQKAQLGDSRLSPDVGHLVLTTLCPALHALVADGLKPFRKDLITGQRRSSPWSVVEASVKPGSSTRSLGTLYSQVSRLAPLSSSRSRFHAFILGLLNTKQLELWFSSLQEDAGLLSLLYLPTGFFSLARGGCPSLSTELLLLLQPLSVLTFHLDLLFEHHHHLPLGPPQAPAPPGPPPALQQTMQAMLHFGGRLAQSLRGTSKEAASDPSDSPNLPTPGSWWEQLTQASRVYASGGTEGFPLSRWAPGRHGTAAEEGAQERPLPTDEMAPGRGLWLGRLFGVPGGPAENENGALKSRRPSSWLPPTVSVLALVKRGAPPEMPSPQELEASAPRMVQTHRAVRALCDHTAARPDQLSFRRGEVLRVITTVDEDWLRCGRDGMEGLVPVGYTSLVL
B2: Glycine N-methyltransferase (Homo sapiens), Q14749 (parent)
chain: MVDSVYRTRSLGVAAEGLPDQYADGEAARVWQLYIGDTRSRTAEYKAWLLGLLRQHGCQRVLDVACGTGVDSIMLVEEGFSVTSVDASDKMLKYALKERWNRRHEPAFDKWVIEEANWMTLDKDVPQSAEGGFDAVICLGNSFAHLPDCKGDQSEHRLALKNIASMVRAGGLLVIDHRNYDHILSTGCAPPGKNIYYKSDLTKDVTTSVLIVNNKAHMVTLDYTVQVPGAGQDGSPGLSKFRLSYYPHCLASFTELLQAAFGGKCQHSVLGDFKPYKPGQTYIPCYFIHVLKRTD
B3: Syntenin-2 (Homo sapiens), Q9H190 (parent)
chain: MSSLYPSLEDLKVDQAIQAQVRASPKMPALPVQATAISPPPVLYPNLAELENYMGLSLSSQEVQESLLQIPEGDSTAVSGPGPGQMVAPVTGYSLGVRRAEIKPGVREIHLCKDERGKTGLRLRKVDQGLFVQLVQANTPASLVGLRFGDQLLQIDGRDCAGWSSHKAHQVVKKASGDKIVVVVRDRPFQRTVTMHKDSMGHVGFVIKKGKIVSLVKGSSAARNGLLTNHYVCEVDGQNVIGLKDKKIMEILATAGNVVTLTIIPSVIYEHMVKKLPPVLLHHTMDHSIPDA
partner: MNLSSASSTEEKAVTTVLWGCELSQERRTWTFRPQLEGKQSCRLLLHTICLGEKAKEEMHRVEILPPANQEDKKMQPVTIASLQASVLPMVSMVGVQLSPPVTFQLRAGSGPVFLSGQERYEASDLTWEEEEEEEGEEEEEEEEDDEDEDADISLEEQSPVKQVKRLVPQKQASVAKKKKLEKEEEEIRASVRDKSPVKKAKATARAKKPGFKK
B4: Rho guanine nucleotide exchange factor 3 (Homo sapiens), Q9NR81 (parent)
chain: MVAKDYPFYLTVKRANCSLELPPASGPAKDAEEPSNKRVKPLSRVTSLANLIPPVKATPLKRFSQTLQRSISFRSESRPDILAPRPWSRNAAPSSTKRRDSKLWSETFDVCVNQMLTSKEIKRQEAIFELSQGEEDLIEDLKLAKKAYHDPMLKLSIMTEQELNQIFGTLDSLIPLHEELLSQLRDVRKPDGSTEHVGPILVGWLPCLSSYDSYCSNQVAAKALLDHKKQDHRVQDFLQRCLESPFSRKLDLWNFLDIPRSRLVKYPLLLREILRHTPNDNPDQQHLEEAINIIQGIVAEINTKTGESECRYYKERLLYLEEGQKDSLIDSSRVLCCHGELKNNRGVKLHVFLFQEVLVITRAVTHNEQLCYQLYRQPIPVKDLLLEDLQDGEVRLGGSLRGAFSNNERIKNFFRVSFKNGSQSQTHSLQANDTFNKQQWLNCIRQAKETVLCAAGQAGVLDSEGSFLNPTTGSRELQGETKLEQMDQSDSESDCSMDTSEVSLDCERMEQTDSSCGNSRHGESNV
B5: Synaptotagmin-like protein 4 (Homo sapiens), Q96C24 (parent)
chain: MSELLDLSFLSEEEKDLILSVLQRDEEVRKADEKRIRRLKNELLEIKRKGAKRGSQHYSDRTCARCQESLGRLSPKTNTCRGCNHLVCRDCRIQESNGTWRCKVCAKEIELKKATGDWFYDQKVNRFAYRTGSEIIRMSLRHKPAVSKRETVGQSLLHQTQMGDIWPGRKIIQERQKEPSVLFEVPKLKSGKSALEAESESLDSFTADSDSTSRRDSLDKSGLFPEWKKMSAPKSQVEKETQPGGQNVVFVDEGEMIFKKNTRKILRPSEYTKSVIDLRPEDVVHESGSLGDRSKSVPGLNVDMEEEEEEEDIDHLVKLHRQKLARSSMQSGSSMSTIGSMMSIYSEAGDFGNIFVTGRIAFSLKYEQQTQSLVVHVKECHQLAYADEAKKRSNPYVKTYLLPDKSRQGKRKTSIKRDTINPLYDETLRYEIPESLLAQRTLQFSVWHHGRFGRNTFLGEAEIQMDSWKLDKKLDHCLPLHGKISAESPTGLPSHKGELVVSLKYIPASKTPVGGDRKKSKGGEGGELQVWIKEAKNLTAAKAGGTSDSFVKGYLLPMRNKASKRKTPVMKKTLNPHYNHTFVYNGVRLEDLQHMCLELTVWDREPLASNDFLGGVRLGVGTGISNGEVVDWMDSTGEEVSLWQKMRQYPGSWAEGTLQLRSSMAKQKLGL
B6: Cyclin-dependent kinase 4 (Homo sapiens), P11802 (parent)
chain: MATSRYEPVAEIGVGAYGTVYKARDPHSGHFVALKSVRVPNGGGGGGGLPISTVREVALLRRLEAFEHPNVVRLMDVCATSRTDREIKVTLVFEHVDQDLRTYLDKAPPPGLPAETIKDLMRQFLRGLDFLHANCIVHRDLKPENILVTSGGTVKLADFGLARIYSYQMALTPVVVTLWYRAPEVLLQSTYATPVDMWSVGCIFAEMFRRKPLFCGNSEADQLGKIFDLIGLPPEDDWPRDVSLPRGAFPPRGPRPVQSVVPEMEESGAQLLLEMLTFNPHKRISAFRALQHSYLHKDEGNPE

Variants of: B1
Settings: with rusc1_human RUSC1, Q9BVN2

Variant | effect of a mutation on the interaction
R23H | with no effect

Variants of: B2
Settings: with ntaq1_human NTAQ1, Q96HA8

Variant | effect of a mutation on the interaction
I211T | with no effect

Variants of: B2
Settings: with arrc_human ARR3, P36575
Sequence of arrc_human ARR3, P36575 (P36575 whole entry): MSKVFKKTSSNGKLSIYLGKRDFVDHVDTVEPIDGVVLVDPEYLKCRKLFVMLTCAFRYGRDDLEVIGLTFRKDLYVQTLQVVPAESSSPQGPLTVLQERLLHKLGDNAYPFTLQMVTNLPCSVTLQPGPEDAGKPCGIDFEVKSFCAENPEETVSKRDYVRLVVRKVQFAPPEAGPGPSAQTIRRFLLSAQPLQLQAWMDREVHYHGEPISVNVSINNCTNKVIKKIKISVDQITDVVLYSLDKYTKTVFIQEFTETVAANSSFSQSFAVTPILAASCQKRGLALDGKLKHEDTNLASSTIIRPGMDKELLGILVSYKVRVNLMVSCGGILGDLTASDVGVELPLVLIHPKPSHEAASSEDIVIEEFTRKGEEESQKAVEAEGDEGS

Variant | effect of a mutation on the interaction
I211T | disrupting interaction strength

Variants of: B2
Settings: with arrb1_human ARRB1, P49407
Sequence of arrb1_human ARRB1, P49407 (P49407 whole entry): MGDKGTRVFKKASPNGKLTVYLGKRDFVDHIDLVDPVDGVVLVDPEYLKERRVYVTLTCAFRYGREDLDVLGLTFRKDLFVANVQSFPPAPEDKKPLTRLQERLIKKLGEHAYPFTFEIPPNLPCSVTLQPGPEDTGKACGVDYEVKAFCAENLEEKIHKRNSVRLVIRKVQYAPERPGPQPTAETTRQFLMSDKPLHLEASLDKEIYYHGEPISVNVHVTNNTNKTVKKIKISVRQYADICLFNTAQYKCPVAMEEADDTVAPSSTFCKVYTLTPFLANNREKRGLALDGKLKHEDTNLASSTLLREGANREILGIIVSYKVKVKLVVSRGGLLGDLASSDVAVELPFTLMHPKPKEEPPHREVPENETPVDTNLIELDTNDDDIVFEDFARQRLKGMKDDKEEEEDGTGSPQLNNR

Variant | effect of a mutation on the interaction
I211T | disrupting interaction strength

Variants of: B3
Settings: with npm2_human NPM2, Q86SE8

Variant | effect of a mutation on the interaction
G225R | disrupting interaction strength
G242R | disrupting interaction strength
V182M | with no effect

Variants of: B4
Settings: with tri23_human TRIM23, P36406
Sequence of tri23_human TRIM23, P36406 (P36406 whole entry): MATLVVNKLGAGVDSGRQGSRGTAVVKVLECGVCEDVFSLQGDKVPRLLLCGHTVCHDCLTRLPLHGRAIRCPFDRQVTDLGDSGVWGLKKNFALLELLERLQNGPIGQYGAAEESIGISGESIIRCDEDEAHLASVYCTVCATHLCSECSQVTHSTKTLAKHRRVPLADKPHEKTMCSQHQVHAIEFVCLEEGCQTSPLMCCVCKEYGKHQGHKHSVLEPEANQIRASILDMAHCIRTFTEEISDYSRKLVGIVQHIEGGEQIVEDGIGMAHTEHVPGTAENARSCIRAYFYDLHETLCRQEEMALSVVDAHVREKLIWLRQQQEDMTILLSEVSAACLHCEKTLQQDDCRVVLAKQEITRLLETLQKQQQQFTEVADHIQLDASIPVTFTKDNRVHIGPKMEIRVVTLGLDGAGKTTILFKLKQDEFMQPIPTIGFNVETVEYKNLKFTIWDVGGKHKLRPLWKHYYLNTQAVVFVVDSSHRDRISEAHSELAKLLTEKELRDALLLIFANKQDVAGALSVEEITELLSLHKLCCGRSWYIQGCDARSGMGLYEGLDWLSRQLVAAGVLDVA

Variant | effect of a mutation on the interaction
N432S | with no effect

Variants of: B5
Settings: with hm20a_human HMG20A

Variant | effect of a mutation on the interaction
D252G | with no effect
M646I | with no effect

Variants of: B5
Settings: with cep70_human CEP70, Q8NHQ1
Sequence of cep70_human CEP70, Q8NHQ1 (Q8NHQ1 whole entry): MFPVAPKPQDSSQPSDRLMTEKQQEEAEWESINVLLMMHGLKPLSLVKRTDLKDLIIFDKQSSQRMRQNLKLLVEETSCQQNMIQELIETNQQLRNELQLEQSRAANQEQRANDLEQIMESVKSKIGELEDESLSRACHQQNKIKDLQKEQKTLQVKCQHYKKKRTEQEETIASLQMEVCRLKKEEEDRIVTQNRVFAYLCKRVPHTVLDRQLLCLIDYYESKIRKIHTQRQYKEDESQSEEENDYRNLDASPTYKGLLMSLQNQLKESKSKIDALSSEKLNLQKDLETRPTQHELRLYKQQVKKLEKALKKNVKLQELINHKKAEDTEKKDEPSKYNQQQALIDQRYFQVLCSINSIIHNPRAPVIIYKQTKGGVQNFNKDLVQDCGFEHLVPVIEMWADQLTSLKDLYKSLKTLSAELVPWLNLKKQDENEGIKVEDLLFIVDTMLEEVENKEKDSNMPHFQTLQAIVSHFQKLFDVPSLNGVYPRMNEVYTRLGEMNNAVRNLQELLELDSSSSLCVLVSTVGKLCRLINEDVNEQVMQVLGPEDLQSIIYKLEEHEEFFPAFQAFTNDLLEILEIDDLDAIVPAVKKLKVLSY

Variant | effect of a mutation on the interaction
D252G | with no effect
M646I | disrupting interaction strength

Variants of: B6
Settings: with ccnd1_human CCND1, P24385
Sequence of ccnd1_human CCND1, P24385 (P24385 whole entry): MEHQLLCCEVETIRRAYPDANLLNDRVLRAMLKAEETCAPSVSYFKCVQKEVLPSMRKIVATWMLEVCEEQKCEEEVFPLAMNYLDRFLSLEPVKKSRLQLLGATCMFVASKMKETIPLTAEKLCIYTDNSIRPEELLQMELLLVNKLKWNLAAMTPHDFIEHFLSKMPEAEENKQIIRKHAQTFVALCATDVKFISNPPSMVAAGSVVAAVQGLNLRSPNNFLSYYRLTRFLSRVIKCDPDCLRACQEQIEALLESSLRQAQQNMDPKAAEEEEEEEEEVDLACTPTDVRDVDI

Variant | effect of a mutation on the interaction
R24H | with no effect
N41S | with no effect
S52N | with no effect
R255H | with no effect

Variants of: B6
Settings: with cdn2b_human CDKN2B

Variant | effect of a mutation on the interaction
S52N | with no effect

Variants of: B6
Settings: with ccnd3_human CCND3, P30281
Sequence of ccnd3_human CCND3, P30281 (P30281 whole entry): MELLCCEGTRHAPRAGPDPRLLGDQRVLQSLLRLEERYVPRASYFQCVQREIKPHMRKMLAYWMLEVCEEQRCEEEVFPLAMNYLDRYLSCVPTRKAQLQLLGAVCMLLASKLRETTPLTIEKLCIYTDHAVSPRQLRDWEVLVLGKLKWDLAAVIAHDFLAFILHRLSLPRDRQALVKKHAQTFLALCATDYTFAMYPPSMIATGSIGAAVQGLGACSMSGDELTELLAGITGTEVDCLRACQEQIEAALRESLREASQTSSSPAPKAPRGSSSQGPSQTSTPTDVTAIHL

Variant | effect of a mutation on the interaction
S52N | with no effect
R255H | with no effect

Variants of: B6
Settings: with cdn2c_human CDKN2C

Variant | effect of a mutation on the interaction
S52N | with no effect
R255H | with no effect

Variants of: B6
Settings: with ccnd2_human CCND2, P30279
Sequence of ccnd2_human CCND2, P30279 (P30279 whole entry): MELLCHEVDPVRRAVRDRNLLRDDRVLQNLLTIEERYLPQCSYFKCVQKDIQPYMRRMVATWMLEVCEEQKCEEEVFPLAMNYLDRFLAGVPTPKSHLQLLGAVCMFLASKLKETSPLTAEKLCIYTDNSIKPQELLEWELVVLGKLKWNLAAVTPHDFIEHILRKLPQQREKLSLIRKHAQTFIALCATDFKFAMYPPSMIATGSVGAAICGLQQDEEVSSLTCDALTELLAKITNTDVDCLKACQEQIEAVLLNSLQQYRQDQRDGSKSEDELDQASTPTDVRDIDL

Variant | effect of a mutation on the interaction
R255H | with no effect

Variants of: B6
Settings: with ccnd1_human CCND1, P24385
Remark: another data set of the same source

Variant | effect of a mutation on the interaction
K22R | with no effect

Variants of: B6
Settings: with ccnd2_human CCND2, P30279
Remark: another data set of the same source

Variant | effect of a mutation on the interaction
K22R | with no effect

Variants of: B6
Settings: with cdn2c_human CDKN2C
Remark: another data set of the same source

Variant | effect of a mutation on the interaction
K22R | with no effect

Variants of: B6
Settings: with ccnd3_human CCND3, P30281
Remark: another data set of the same source

Variant | effect of a mutation on the interaction
K22R | with no effect
